Test results as given in a protein production outcome set (Wang et al. 2014).

Assay: label from the status in PepcDB records
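Also: failed if final PepcDB status was selected cloned or expressed and not failed if soluble or beyond.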

HALGAPVLRVEGLSQAGHFRNVSFEVRAGEVLGITGLLGSGVKELVECLFGLEQPDAGSVTIDGEVRRFANPGRAVQGRVALVPEDRRAHGVATDMSVRDNITIASLERYMTRGFVSRARENEAVDGFIRELSIKTPHRDQLVRNLSGGNQQKVALAKWLSCQSRVYVLDEPTVAVDVGAKVEIYTLLNRLAAEGAAILFLSSDLLEIAGFCDRALVVYRGTLNGEFAGETLDSDLLLAAASGARAQRKEA
protein production: failed

MISPELVKEALKKKKVRSEEAFGLEYLRFNDDYKDIPRGTAIFKDFIIWGYPHIGRIFLLETGLREQFEAPFWVEEKVDGYNTRIFKYGDNYYALSRGGFICPFTTDRLPDLIDLRILDENPDLVICAEVAGPENPYIEESPPYVKEDVQLFVFDFMKKNEQGFLSQEEKMELIEKYNLPHVEILGRFTASEEGIKKIKEILKRFNEEGREGVVFKEDSERNKRAKYITSYANLMDIKTNAKNMLQLPPEYYTNRILRLVLFMYEEGLKTTEHLYEELGRAFIDGLFQAIEQFEKEHKVYKTFTCKFRKKENAIALLELLSKTSKHIQVKERRLEKEGDYWRLEFDKVFLNMTGLLGHLLSGGIVYD
protein production: not failed

SSSDIAYIYVNNKKSYLKDKKVRQALTYGLDRKKYVDTALQGYGSVANVPIAPVSWAYTEEGINKYPHDVEKAKKLLDEAGWKVGSDGVREKDGQKLKLTYYASNTGKTNDIFIPIAKESYKEIGVELNPELMDFNTMLSKVGKGDYDLAAVSTPGISDPSEVVSDYLSTNPKSDTGYSNPKVDDLIVKGIGTTDIEKRKAIYKELYKELSDDPPVILLNYRK
protein production: failed

DLRSLFQTTVTEVRKLLVADRVMIIKVRQNKNFSWGEIQAEAQTDDKLCLLPPKERVPLSSRWIDHFAKGLILAMDDTDDQRADFDQSMLALAKANLVVPLFSGDRLWGVLSVHQCDGPRVWESSDIEFALKIALNLGVALQQAELLTESQRRSTALQSALGEVEAQKDYLARIAEEERALTRVIEGIRQTL
protein production: failed

MFRVFILFGFGFYLMQLHISGDISKYINMKYAYLSFSAMIAAFLLAIIQLIMVFRDEDIGAKTEHMGHTHDGENTILKKIMVYGLLSYALIAGFLFPVATLDSTIVSAKGFHFPKNNAAGDDPYAQNQFLRPDTSGYFGETDYEKMMAKEKAEIIDQNPIKVNDSNYLMTMEILYNYPGEFTGKQIEFTGFVYNDEVTKDNNLFLFRFGIIHCVADSGVFGMLVQMPEKTNLKNDTWLTVKGTITQEYYSPFKMNIPSVQVESYKEVAKPKSVYVYRKY
protein production: failed

MKSLSEHVDFSESKTGNSSSESETGQTLIFLLADLAQRQQIDNTLQSFLNESNAEEILLVANIRCADDEVWLRKYCARFPSVNAILNRRAKSATVLEAQGRWLARYRSQVVLSVDCDESGVKILRKVLPFFTPPVAMEMQKSTLSCQPGEQGLTLIIPAHDCDLYLTDCLASALVIESDKTLVVVDDGSLDDTHGVIAGFASQYPEIIDHISICKASGLPAVPRNIGLASVQTDTFGFIDADDWISPGEYTSALYEMQQMSADIATAAGFTRHYPDRTESLLQKCFTIPENEPANVLEGSFFSNIWNRIYARSILLRSGAYFPRTHFSEDFCFSVWSHFYAEKTIQVSVSFYHHRYGRQGSTTDNRAGSGAFSHITEFHRELEMYLADPFMRKALATILRKRMGSFQYTLKLLPPELIQPFKTALQEMLKPLNRYFISDKEPNKRDIATFAALGISDLLYQRPRSKFLGMRNWGRKWLGMYQQLTKRESHENS
protein production: failed

MKHIHSYYSPNNLYNKIIEGLNNLGKDLSSVTPDDLQPVDEFHIRGDIATKELIELGNFTPDMHILDVGCGVGGSTRRLSHETGCHVTGIDLSDEYIDAAERLTQLLNMQARVKFNVGSALELPYADNTFDGAWSIQMNMNVEDKLGWLKEMYRVLKPGARAVLYEVCGHEEKTIYFPVPWAQDSSMSFLIPKEAFRDLIASTGFKIEVWNDKSDLAQKAFARMREPTGESTLPELGLHMLIGNDIKTKAYNMRRNLDDERISLIEILAIKPS
protein production: failed

MRVVALVPGGIGDQILFFPTLDDLKRYYPNAQLDVVVEPRSKAAYRVSKSVNDILTFDYKDRNSLADWGNLVGTIRDREYDVVITVGQSWLVGLFLWLTGIPTRIGYQGKGRSFLTKTVPFKPSQYAAAVYHDLLAPIGITTPTPELAVNVPKPDIDWANSEQKRLGVNETGYVLIYGGSSWVSQPQALETIYPAENWQEIIQDFRQKQPDLPVVVIQGPDDEQFVRSLRDYSLDIKVTSPDNVGKLTAMIAGANLMLTTDSAPLHLSVAVQTYTIALFGSTDPVKLLPNSDKLLGIKSSTGRVADILPKAVLEKVWGGLEHHHHHH
protein production: not failed

MENHSHANTHTDTRTDDKSTKIVRLLGLIGGALIALVIYYALNSQMPHIVEEIPKLSSLNYKAMPVVAGVAVLMGIWWMTEAIDLPATALLPLVLFSVFSVDQFASVSSSYASPIIFLFMGGFILALSMQKWNLHTRIALSIILLVGTSPRRLILGFMMATGFLSMWVSNTATAVMMLPVGMSVLQLVAKLVGKEDASNSWHQKEEITKAHGGIMSNIVHKGKDITQVIQEKTTIYRTNFSICLMLGIAYAASIGSLGTLIGTPPNALLAGYMKTAFNIEIDFAQWMVFGTPLAFIMLILAWLLLTYVIFPLKIKEIPGGKEVIRVELKKLGRLSQAEISVGIIFILASLGWIFLGVMLKSWGVKIDKIDSVIAMGVSALLFILPANHQGDRLIDWGVAKKLPWDVLLLFGGGLALSAQFSKTGLSLWIGHLVSGFSHLPILFIIVMVTLMVIFLTEITSNTATAAAFLPVIGGVAMGMGYENHQSLLLTIPVALSATCAFMLPVVTPPNAIAYGSGYVKITDMIKAGLWLNLVGVVLISTFSYFLVSLIFN
protein production: failed

LADVEARARIAIDAAGMGTWDLRPQEGLLLWDDRCKTLFGVPTSTEMSLEVFYAGIYPDDLPLVREAVEHAMRPESDGHYRVEFRIAQPNGLEPRWLLSSGQSQFVDDQCVRFSGVLQDIHAQRQATQALRQLNEMLGER
protein production: not failed

MKWLRSEMKTFAIHLPQFHTFPENDRWWGKGFTEWTNVKKAKPLYEGHSQPLIPINSHYYDLSNPEEMTRQHRLAAQYGIDGFVYYHYWFNGKKLMEKPVEDLLTNKEAKQQYCLCWANEPWTRAWDGKNKEILMPQTFGGQEDWLNHIRYLISFFKDERYLRIQGRPVFFVYSPKNIPNFDNMIEFWDSYLERCGEEKIYLIEYISSFNPKAFSDYSKAVFEFEPLYSAHYEISFLKQADRFIDKKMKRLDCLDYDYLWNRILNKQRKYGTRQIVRSAFTNFDNSPRKGTRAFITQGSSYTKFADYLNQLIHSNRQDYMDFTVINAWNEWGEGAILEPTESDQYGWLQAVKDAVQ
protein production: failed

SERNDIINFKALEKELQAALTADEKYKRENAAKLRAVEQRVASYEEFRGIVLASHLKPLERKDKMGGKRTVPWNCHTIQGRTFQDVATEISPEKAPLQPETSADFYRDWRRHLPSGPERYQALLQLGGPRLGCLFQTDVGFGLLGELLVALADHVGPADRAAVLGILCSLASTGRFTLNLSLLSRAERESCKGLFQKLQAMGNPRSVKEGLSWEEQGLEEQSGGLQEEERLLQELLELYQVD
protein production: not failed

MIGIVMLSKIANIDAARQGLDLKVKVLSLNKKTIKNDRGETTYFYGIIGDDTGTVSFTAWSFPAAVKSGDVVEIKNCYSSLYNGKIRIYVDSRSQVVLKPDEYLEVKRTVELVKLRDLSLTTPYVSVIGRISGIKEKNYDSDRGSKIVYQGFIEDETAKVRISSFGKPLKDGEIVRVENARVSQYNGYMGISIGENSSIDNVQAQIEVGSRPIFIAEIKSPIGGVTITGFAVSVGQGSRIFTKCSICKKILEDGKCKDHPRAPVYLDIFGYFLLSDGTGSLTCYLNKDSFLPYIKMDTEEFKSQAFSMNPNMLIKKNILGKCLSVTGDLRLRDDKITMNASSIKEADADSVKDIEKTIQEEFQLEHHHHHH
protein production: failed

SRVLSRMSGTIRHFQAITLALSRERDLERMLDGVLSHLVEAAGGDAGGVYLYDAEQALLRLAASCRGEHYPSELAVDESARQHLAATVTQALSLHERSLAVVLNDRSQALLGILVLQMGEEQAQERVGEAFRRFVEELSGVAAVAIETRQLVEAQQRLLDA
protein production: failed

MSNALATLASPADDIAFYEERLRAAMLTGDLKGLETLLADDLAFVDHTGCVKTKQTHLEPYRAGLLKLSRLDLSDAVVRAAGEDGRVVVVRAVTAGVYDGEAFTETLRFTRIWRRTQGPAGWKLVAGHCSVIL
protein production: not failed

MTFCFWMRDTCHQRRRADIGSANADRYWEEDMTGTPRLLESRWDDAYAQTLDEPGKLLYRSNLLGADKRITNYGGGNTSAKVLEIDPLTGEKVRVMWVKGSGGDVGTIKLDGFATLYLEKLEALKGIYKGVEDEDRMVGFLPHCTFNLNPRAASIDTPLHGFVPFDHVDHMHPDAIIAIAASKNSKELTQQIFGDDIGWLPWRRPGFQLGLDLEAFVKANPTAKGVVLESHGLFTWDDDAKACYELTLAIINKAIEWFAAETEGKTIFGGALAKSLPVAERRAIAARLMPEIRGRIGREERKLGHFDDQDAVLEFVNSKDLKPLGNLGTSCPDHFLRTKIRPLILDLDTAKPDVDALTAGLDKALEAYRADYSRYYEACRHDNSPKMRDPNPVIFLIPGVGMLSFAKDKATARIAGEFYVNAINVMRGASTVSEYQGLPEQEAFDIEYWLLEEAKLQRMPKPKSLAGRVAFVTGGAGGIGRATAERLADEGACVVLADIDEAALEAAKGDFVKRYSGDAVRTVKLDVTQEDDVISAFAEASVEFGGVDILVSNAGIASSAPVEDTTLAMWNKNIDILATGYFLVSREAFRLLRRQNLGGNIVFVASKNGLASSPNASAYCTAKAAEIHLARCLALEGAEAGIRVNTVNPDAVLRGSKIWNGEWREQRAASSKIEVTDLEEHYRKRSMLKLNVFPEDIAEAIYFLASDASAKSTGNIINVDAGNAQSFTR
protein production: failed

MKVQATFATLIALAAYFPAANAWKDCIIQRYKDGDVNNIYTANRNEEITIEEYKVFVNEACHPYPVILPDRSVLSGDFTSAYADDDESC
protein production: not failed

MITMKISSRFSIAVHILSILKNNPSSLCTSDYMAESVNTNPVVIRKIMSYLKQAGFVYVNRGPGGAGLLKDLHEITLLDVYHAVNVVEEDKLFHIHEQPNPDCPIGANIQAVLEIILIQAQSAMEEVLRNITMGQLFETLQEKMNA
protein production: not failed

MQRFLSIALALCVGLTLSLDASAKRFGGGKSSGSAPIHQTRQATPTTPAAAPTVPGRAPAAASGASRWLGPLAGLAAGGLLASMFMGDGFEGFQIMDFLIVALIAFLVFRFIAARRRQQQPQMAMPGHAPMQREAHAQPAQPSIFGGSAAPAATAAPVINAPAWFNEQSFLAAARNHFQSLQQHWDANEMDKISEFVTPQMLEFLKRERAELGDGFQSTYIDNLEVQLDGVDDRADRTDATLTFRGVSKNSRFDQGEVFSESWHMVRAQGENQPWLVAGIRQNS
protein production: failed

MTKQDIRVALTIVALVLGLGWAIGYGIGLMTRPASVVPENPPHDALKSPARKAPRSGAVSGDTRYPDYEELYVNDYADLLDPAAEDRLRDKLIALYGHNGVEMTVLTIDTMGTYGHGGAIEPFATGLFNNWGIGDAERNDGVLVLIVRFDRKMRIEIGAGYERAWDARMQRVIDAGFLPYFRRDEYQEGIEAGVDETIRELTGAYPGAWDMGTAQRGWSWLARAVDRIGEWVLSLLLVPLGGAALWVRRYLRNRTRPCAQCRTPMLRAGEEADDEHLDGGQRLEEYLKSVDYDVWHCPDCGHIDIHRYKSWFSGYGACPQCNYRTLSTTSTVLSAATKTREGRKRVEYDCAHCGHHDSEIRTIPKISDSNSGGSGRSSFGGGSSSGGGASGSW
protein production: failed

SSLRPSPRLLCTATKQKNSGQNLEEDMGQSEQKADPPATEKTLLEEKVKLEEQLKETVEKYKRALADTENLRQRSQKLVEEAKLYGIQAFCKDLLEVADVLEKATQCVPKEEIKDDNPHLKNLYEGLVMTEVQIQKVFTKHGLLKLNPVGAKFDPYEHEALFHTPVEGKEPGTVALVSKVGYKLHGRTLRPALVGVVKEA
protein production: failed
